Where a chain is given by its changes, count along the chain named.

What is called IC50 is the concentration that inhibits the measured activity by half. For orientation: Kd means the concentration at which binding is half-saturated.

First the molecules themselves.
T1: Recombinant human MerTK human Fc Chimera protein (R&D systems, Cat #391-MR-100) (human, UniProt Q12866 26-499, limits assumed)
T1 construct: Bought; also called recombinant human MerTK protein; MerTK-Fc
T1 sequence: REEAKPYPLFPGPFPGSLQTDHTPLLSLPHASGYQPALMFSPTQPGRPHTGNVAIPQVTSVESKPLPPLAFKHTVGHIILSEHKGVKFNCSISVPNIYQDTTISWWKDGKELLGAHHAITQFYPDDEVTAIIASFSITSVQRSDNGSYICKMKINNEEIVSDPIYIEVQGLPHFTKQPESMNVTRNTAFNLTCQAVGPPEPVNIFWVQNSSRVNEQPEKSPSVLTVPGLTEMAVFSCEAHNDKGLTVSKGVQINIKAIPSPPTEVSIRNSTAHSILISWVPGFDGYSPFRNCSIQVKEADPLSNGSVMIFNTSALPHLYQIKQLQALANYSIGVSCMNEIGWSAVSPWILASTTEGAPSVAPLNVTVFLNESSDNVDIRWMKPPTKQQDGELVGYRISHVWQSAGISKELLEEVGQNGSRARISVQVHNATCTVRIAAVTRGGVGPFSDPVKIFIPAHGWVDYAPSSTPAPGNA

T2: human MerTK extracellular domain (ECD), recombinant (human, UniProt Q12866 21-505)
T2 construct: also called huMerTK; not shown: polyHis tag or TEVS/Thrombin/murine IgG2a Fc tag
T2 sequence: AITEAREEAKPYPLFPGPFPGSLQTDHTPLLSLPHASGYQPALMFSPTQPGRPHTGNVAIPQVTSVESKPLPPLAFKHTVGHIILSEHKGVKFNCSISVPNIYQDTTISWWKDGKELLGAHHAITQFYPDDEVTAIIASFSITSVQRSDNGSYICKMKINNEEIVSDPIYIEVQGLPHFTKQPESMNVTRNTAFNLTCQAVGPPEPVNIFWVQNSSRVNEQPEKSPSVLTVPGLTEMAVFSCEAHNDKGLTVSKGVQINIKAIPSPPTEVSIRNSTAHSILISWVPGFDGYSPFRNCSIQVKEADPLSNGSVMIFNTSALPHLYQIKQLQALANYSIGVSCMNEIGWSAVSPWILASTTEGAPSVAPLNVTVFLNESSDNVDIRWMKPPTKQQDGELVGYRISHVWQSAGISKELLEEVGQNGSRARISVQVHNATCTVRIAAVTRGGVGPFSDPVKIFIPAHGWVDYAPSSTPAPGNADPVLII

T3: cyno MerTK extracellular domain (ECD), recombinant (cynomolgus monkey, UniProt Q12866 21-505 (human entry))
T3 construct: also called cynomolgus MerTK; not shown: polyHis tag or TEVS/Thrombin/murine IgG2a Fc tag
T3 chain: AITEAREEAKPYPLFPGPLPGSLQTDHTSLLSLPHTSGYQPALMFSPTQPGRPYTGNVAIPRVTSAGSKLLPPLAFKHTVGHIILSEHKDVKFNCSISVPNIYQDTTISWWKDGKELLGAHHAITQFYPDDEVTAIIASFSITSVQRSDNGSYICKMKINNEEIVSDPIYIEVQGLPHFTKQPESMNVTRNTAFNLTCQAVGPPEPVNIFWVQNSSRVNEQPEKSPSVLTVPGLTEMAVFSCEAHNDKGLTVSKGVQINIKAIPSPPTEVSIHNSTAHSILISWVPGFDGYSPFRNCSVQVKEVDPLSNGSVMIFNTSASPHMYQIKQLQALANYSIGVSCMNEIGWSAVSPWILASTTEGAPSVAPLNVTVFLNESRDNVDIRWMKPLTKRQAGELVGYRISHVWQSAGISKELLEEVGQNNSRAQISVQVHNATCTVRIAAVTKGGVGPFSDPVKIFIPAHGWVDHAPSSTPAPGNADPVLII

T4: murine MerTK extracellular domain (ECD), recombinant (mouse, UniProt Q60805 19-497)
T4 construct: also called moMerTK; mouse MerTK; not shown: polyHis tag or TEVS/Thrombin/murine IgG2a Fc tag
T4 sequence: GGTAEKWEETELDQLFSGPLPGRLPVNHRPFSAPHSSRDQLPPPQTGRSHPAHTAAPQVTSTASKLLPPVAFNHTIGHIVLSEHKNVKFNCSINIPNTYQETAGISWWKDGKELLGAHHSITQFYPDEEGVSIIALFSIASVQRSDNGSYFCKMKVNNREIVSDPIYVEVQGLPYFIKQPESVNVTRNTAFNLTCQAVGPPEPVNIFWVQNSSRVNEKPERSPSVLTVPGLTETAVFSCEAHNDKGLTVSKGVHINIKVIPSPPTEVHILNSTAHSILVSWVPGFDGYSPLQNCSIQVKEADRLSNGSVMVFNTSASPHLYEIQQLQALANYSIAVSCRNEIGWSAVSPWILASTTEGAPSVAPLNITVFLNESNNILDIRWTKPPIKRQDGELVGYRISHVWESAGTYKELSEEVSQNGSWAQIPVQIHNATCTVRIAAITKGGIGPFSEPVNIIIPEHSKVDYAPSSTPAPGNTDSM

B1: MTK-23 (antibody, human IgG1, V domains shown)
VH: QVQLQQSGADLVRPGASVKISCKAFGYTFTNHHINWVKQRPGQGLDWIGNVDPYNDYSTYNQKFKGKATLTVDKSSSTAYMELSSLTSEDSAVYYCARRVYDGFYVDWYFDVWGAGTTVTVSS
VL: DIVMTQSHKFMSTPVGDRVSITCKASRDVSTAVAWFHQKPGQSPKLLIYSASYRSTGVPDRFTGSGSGTDFTFTISSVQAEDLAVYYCQQHYSAPLTFGAGTKLELK
B2: MTK-33.8 (antibody, human IgG1, V domains shown)
VH: QVQLVQSGAEVKKPGASVKVSCKASGYTFTSYWMHWVRQAPGQGLEWIGVIDPSDNYINYNQKFQGRVTMTRDTSTSTVYMELSSLRSEDTAVYYCAREAWTRGYFNYWGQGTLVTVSS
VL: DIQMTQSPSSLSASVGDRVTITCQASQSVSRTVAWYQQKPGKAPKLLIYYASNRYTGVPSRFSGSGSGTDFTFTISSLQPEDIATYYCQQDYRSPFTFGQGTKLEIK
B3: MTK-33.14 (antibody, human IgG1, V domains shown)
VH: B2 VH with Q65R, W101G, N107D
VL: B2 VL with R31N
B4: MTK-33.21 (antibody, human IgG1, V domains shown)
VH: B2 VH with Q65R, W101G, N107D
VL: B2 VL with D17G, Q27R, R31N, A51V, Y92M
B5: MTK-33.16 (antibody, human IgG1, V domains shown)
VH: B2 VH with G26W, W101G, N107D
VL: B2 VL with Q27R, R31N
B6: MTK-33.12 (antibody, V domains shown)
VH: B2 VH with T30V, Q65R, W101G, N107D
VL: B2 VL with R31N, Q89R, Y92T, I106L
B7: MTK-33.15 (antibody, human IgG1, V domains shown)
VH: B2 VH with G66V, W101G, N107D
VL: B2 VL with Q27R, R31N, Y92M
B8: MTK-33.17 (antibody, human IgG1, V domains shown)
VH: B2 VH with D52A, Q65R, W101G, N107D
VL: B2 VL with Q27R, R31N, Y92M
B9: MTK-33.11 (antibody, human IgG1, V domains shown)
VH: B2 VH with N107D
VL: B2 VL with Q27R, S30R, R31N
B10: MTK-33.10 (antibody, V domains shown)
VH: B2 VH with G26S, T28S, Q65R, W101G, N107D
VL: B2 VL with S26G, R31N

The first test concerns the target T1, Recombinant human MerTK human Fc …. Briefly: competition ELISA, His-ProS on captured MerTK-Fc. On the procedure: Rabbit anti-human IgG polyclonal antibody (Jackson ImmunoResearch, Cat #309-005-008) was captured to a high-protein binding plate at 2 μg/ml 4° C. overnight. After washing with 0.05% Tween20 in PBS three times, 5% BSA in PBS was added for 1 hour. Recombinant human MerTK human Fc Chimera protein (R&D systems, Cat #391-MR-100) was added at 2 μg/ml for 1 hour and the plates were then washed. Anti-MerTK antibodies were titrated to final concentration range of between 66.6 nM to 4 pM and then 40 μl of serially diluted antibody and 40 μl of His tag-conjugated recombinant Gas6 protein (R&D systems, Cat #885-GSB-050) at 3 μg/ml or His tag-conjugated recombinant ProS protein (R&D systems, Cat #9489-PS-100) at 20 μg/ml. After a further incubation for 1 hour, plates were washed and incubated for 1 hour with HRP-conjugated anti-6×His tag antibody (Abcam, Cat #ab1187). Plates were then washed and an HRP substrate (TMB) was used to develop the plates. After sufficient color change was observed, the reaction was stopped by adding 50 μl 2N H₂SO₄ and the OD was measured using a spectrophotometer (BioTek).
From these experiments, IC50 values [nM] were determined using OD450 values obtained from the dose-response curves analyzed with Prism software. Table 14 and Table 15 show IC50 values determined for anti-MerTK antibody blocking of Gas6 ligand binding and ProS ligand binding to MerTK. […] Dashes indicate lack of significant blocking; “n.a.” indicates data not available.
In general terms: An ELISA detects its analyte on a solid surface through an enzyme-linked reagent.
With B1, the IC50 stood at 25.9 nM.

The target in a further test is T2, human MerTK extracellular domain (ECD), …. Briefly: SPR, Carterra LSA, antibody immobilised. On the procedure: (§1) Binding kinetics of humanized and affinity-matured anti-MerTK antibodies of the present disclosure to human, murine, and cynomolgus MerTK proteins were evaluated as follows. Briefly, anti-MerTK antibodies were prepared by diluting to 10 μg/ml in 10 mM Acetate, pH 4.25 (Carterra, Salt Lake City, Utah), at 300 μl/well. A HC200M sensor chip (Carterra) was activated using the single channel flow cell with a 7-minute injection of a 1:1:1 mixture of 100 mM MES pH 5.5, 100 mM sulfo-NHS, 400 mM EDC (all reconstituted in MES pH 5.5; 100 μl of each mixed in vial immediately before running assay). After switching to the multi-channel array flow cell, the antibodies were injected over the activated chip in a 96-spot array for 15 minutes. The remaining unconjugated active groups on the chip were then blocked by injecting 1M Ethanolamine pH 8.5 (Carterra) for 7 minutes using the single channel flow cell.
(§2) Estimates of affinity were generated by injecting each analyte over the entire antibody array using the single channel flow cell. MerTK analytes were diluted to 33.3, 100, and 300 nM in running buffer, and injected in serial from lowest to highest concentration without regeneration. Two buffer blanks were run between each series (one species per series). Data were processed and analyzed using NextGenKIT high-throughput kinetics analysis software (Carterra). In these experiments, the anti-MerTK antibodies were human IgG1 isotype containing the Fc variant LALAPS.
(§3) The equilibrium dissociation constants (KD) were then calculated from the fitted association and dissociation rate constants (k-on and k-off) for anti-MerTK antibodies of the present disclosure.
Turning to B2, the Kd amounted to 41 nM.

On to B3, for which the Kd came to 30.5 nM.

Turning to B4, the Kd amounted to 0.4 nM.

Consider B5, for which the Kd turned out to be 10.9 nM.

With B6, the Kd was 8.6 nM.

As for B7, the Kd is 4.6 nM.

In the case of B8, the Kd is 20.4 nM.

B9: the Kd was found to be 11 nM.

Regarding B10, the Kd turned out to be 41 nM.

The target of another test is T3, cyno MerTK extracellular domain (ECD), …. Briefly: SPR, Carterra LSA, antibody immobilised. On the procedure: as §1, §2, §3
In general terms: SPR reads the build-up and loss of mass on a sensor chip optically.
Regarding B2, the Kd came to 41 nM.

Consider B3, for which the Kd is 29 nM.

For B4, the Kd is 0.3 nM.

For B5, the Kd stood at 10.1 nM.

Take B6: the Kd is 7.9 nM.

On to B7, for which the Kd came to 4 nM.

For B8, the Kd was 19.9 nM.

Take B9: the Kd worked out at 10.1 nM.

B10: the Kd came out at 38 nM.

Another test deals with T4, murine MerTK extracellular domain …. Briefly: SPR, Carterra LSA, antibody immobilised. Here is the method: as §1, §2, §3
Consider B2, for which the Kd was found to be 465 nM.

On to B3, for which the Kd worked out at 275 nM.

For the molecule B4, the Kd was found to be 44 nM.

For the molecule B5, the Kd worked out at 225 nM.

Take B6: the Kd was determined as 230 nM.

With B7, the Kd worked out at 105 nM.

Consider B8, for which the Kd amounted to 505 nM.

In the case of B9, the Kd turned out to be 115 nM.

Regarding B10, the Kd was 150 nM.

Values taken from US20210261685A1 (Alector, published 2021).
